Measurements as given in the supplement of paper PMC9732359.
± gives the uncertainty stated by the source.

Experiment: protein stability index of a GFP-peptide fusion (yeast GPS) (PSI 1-4); higher = more stable; sorted into four equal gates, so the index is relative within each strain
Outline: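 The protein stability index combines read frequencies across sorting gates, each weighted by its gate number and then summed. To obtain those frequencies, a pooled yeast library of GFP fusions to tiled 17-residue yeast protein peptides, on a plasmid also expressing Cherry, was grown to mid-log phase in leucine-free medium. The cells were sorted into four equal gates by GFP/Cherry ratio before plasmid amplification by PCR and Illumina sequencing.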

| Sequence | protein stability index (doa10∆) | protein stability index (pdr5∆) | protein stability index (ubr1∆) | protein stability index (san1∆) |
| --- | --- | --- | --- | --- |
| SQPKIGYGSNKKTKFLS [RPL32] | 1.23 ± 0.15 | 1.52 ± 0.16 | 1.38 ± 0.096 |  |
| PSLKAHFTEIKLNKVDK [SIR3] | 2.31 ± 0.061 | 2.13 ± 0.065 | 2.08 ± 0.082 | 2.35 ± 0.065 |
| NKGRAVYINPSGEKIDF [BRR2] | 2.98 ± 0.13 | 2.76 ± 0.1 | 3.17 ± 0.098 | 2.91 ± 0.071 |
| VKLQMIKFGGLIIQKIP [ECM29] | 2.48 ± 0.059 | 1.89 ± 0.065 | 2.37 ± 0.049 | 1.48 ± 0.07 |
| LTSTKVKQLENVSSNIV [RPS20] | 1.75 ± 0.075 | 2.16 ± 0.12 | 3.19 ± 0.075 | 2.65 ± 0.11 |
| IRKLVKNGTIVKKAVTV [RPL19A] | 2.88 ± 0.17 | 3.08 ± 0.12 | 3.28 ± 0.072 | 3.15 ± 0.12 |
| LEEVEGSCTGKFGYILC [RPB7] | 2.14 ± 0.067 | 2.56 ± 0.057 | 2.21 ± 0.046 | 2.1 ± 0.066 |
| SYSPTSPSYSPTSPAYS [RPO21] | 3 ± 0.071 | 3.05 ± 0.063 | 3.15 ± 0.048 | 2.73 ± 0.062 |
| PVAKWFVKFITYLTQEI [SIN4] | 2.32 ± 0.048 | 1.88 ± 0.046 | 2.07 ± 0.064 | 1.76 ± 0.078 |
| SGMGPDYRVLVDKSRKV [PRE8] | 3 ± 0.14 | 2.21 ± 0.19 | 2.98 ± 0.24 |  |
| NAKRSHMMKRWGYQMVW [POP1] | 1.97 ± 0.052 | 2.38 ± 0.056 | 2.67 ± 0.055 | 2.69 ± 0.077 |
| NSNINTLTASPDGTLIA [ASC1] | 2.88 ± 0.078 | 2.68 ± 0.061 | 2.82 ± 0.046 | 2.88 ± 0.061 |
| QQLVDSEKRLDHFIHLR [SNF12] | 2.3 ± 0.12 | 2.75 ± 0.07 | 2.68 ± 0.076 | 2.56 ± 0.078 |
| IQEFLVVIEKRRKKILN [GRR1] | 2.92 ± 0.091 | 2.74 ± 0.097 | 2.94 ± 0.088 | 2.88 ± 0.083 |
| EAVIDEKLEVIADELMK [ITC1] |  |  | 3.27 ± 0.12 | 3.21 ± 0.25 |
| NDIAGQPQALQKSGRPV [RPO21] | 2.93 ± 0.087 | 3.16 ± 0.12 | 2.96 ± 0.073 | 2.84 ± 0.16 |
| KDILVKTGITKKDEDEE [PRE9] | 3.37 ± 0.09 | 3.27 ± 0.087 | 3.17 ± 0.14 | 2.58 ± 0.23 |
| TFLLNNKNIDIGLLNKS [RPN2] | 3.38 ± 0.21 | 3.11 ± 0.27 | 2.61 ± 0.11 |  |
| PSCVYNLIGVITHQGAN [UBP6] | 2.64 ± 0.14 | 2.9 ± 0.13 | 2.48 ± 0.18 | 2.99 ± 0.13 |
| LLKEKPNALKPLSESLR [RRP6] | 2.71 ± 0.059 | 2.83 ± 0.065 | 2.94 ± 0.044 | 2.91 ± 0.077 |
| AFNDSCVNLSLFDARFE [SRB8] | 3.11 ± 0.09 | 3.15 ± 0.059 | 3.14 ± 0.051 | 3.39 ± 0.091 |
| LGVASFHGTSTKANDKN [FAS2] | 3.09 ± 0.079 | 2.95 ± 0.092 | 3.02 ± 0.069 | 3.11 ± 0.075 |
| ASVRIKDKFNQIPLHRA [NAS6] | 2.55 ± 0.095 | 2.68 ± 0.12 | 3.17 ± 0.055 | 2.91 ± 0.14 |
| PDCKIKIAHGTTTLAFR [PRE2] | 2.64 ± 0.077 | 2.72 ± 0.056 | 2.71 ± 0.064 | 2.65 ± 0.066 |
| AILQKSLKNVTEKNREI [YIL149C/MLP2] | 3.01 ± 0.051 | 2.79 ± 0.064 | 2.96 ± 0.036 | 3.05 ± 0.032 |

| Sequence | protein stability index (doa10∆) | protein stability index (pdr5∆) | protein stability index (ubr1∆) | protein stability index (san1∆) |
| --- | --- | --- | --- | --- |
| FRHHVQIQQQQQKQQQQ [SNF5] | 2.71 ± 0.17 |  | 2.57 ± 0.083 | 3.07 ± 0.13 |
| PDIADIPRTFRTPVPST [SNF5] | 2.12 ± 0.093 | 1.96 ± 0.059 | 2.01 ± 0.072 | 2.04 ± 0.064 |
| SGGNNTATIINNESSDD [PCI8] | 2.63 ± 0.091 | 2.65 ± 0.087 | 3.17 ± 0.055 | 2.69 ± 0.092 |
| YPEDKKTQQNEKSENGE [RPN3] |  |  | 3.13 ± 0.12 | 3.22 ± 0.041 |
| STLGDCLGIKDEEMLTS [GAL11] | 3.17 ± 0.18 | 3.11 ± 0.13 | 3.04 ± 0.088 | 2.81 ± 0.062 |
| EAKDAIIELENINAKME [YIL149C/MLP2] | 3.06 ± 0.091 | 3.12 ± 0.099 | 2.84 ± 0.088 | 3.02 ± 0.08 |
| TTARNDLGVVFARAANG [CSL4] | 1.87 ± 0.056 | 2.02 ± 0.12 | 2.39 ± 0.048 | 1.87 ± 0.14 |
| VTPTKTEVIIRATRTQD [RPS3] | 1.86 ± 0.049 | 1.91 ± 0.044 | 1.91 ± 0.033 | 2.57 ± 0.069 |
| PDLQFIVISLKNTMFEK [SMC1] | 2.83 ± 0.082 | 2.68 ± 0.071 | 2.77 ± 0.045 | 3.01 ± 0.05 |
| PRMIELMEFLCVVSTDS [ECM29] | 2.04 ± 0.064 | 1.66 ± 0.066 | 1.4 ± 0.054 | 1.64 ± 0.1 |
| MKNKAETTTEEDSENPS [ITC1] | 3.31 ± 0.19 | 3.27 ± 0.14 | 3.31 ± 0.15 | 3.03 ± 0.13 |
| DSYLDADKELSFEINVK [BRR2] | 2.83 ± 0.051 | 3.03 ± 0.041 | 2.88 ± 0.034 | 3.08 ± 0.032 |
| KIEGCISQVSSIHAIGS [RPB7] | 1.9 ± 0.11 | 2.48 ± 0.16 | 2.17 ± 0.15 | 2.11 ± 0.1 |
| AVKYGLNHVVSLIENKK [RPL8B] | 2.25 ± 0.079 | 2.37 ± 0.077 | 2.01 ± 0.047 | 2.26 ± 0.089 |
| VQKSTKTFSYKRPSTFY [RPL20A] | 2.73 ± 0.15 | 3.34 ± 0.084 | 2.23 ± 0.065 | 3.06 ± 0.085 |
| TGHPKGAAGAWMMNGAL [FAS2] | 1.98 ± 0.069 | 1.5 ± 0.052 | 1.66 ± 0.052 | 1.43 ± 0.12 |
| VSIKFTNAAFPFHDPEA [ECM29] | 2.3 ± 0.053 | 2.11 ± 0.053 | 1.83 ± 0.047 | 1.91 ± 0.068 |
| ATYSNEFKCMSVITAQQ [YGL100W/SEH1] | 1.75 ± 0.053 | 1.48 ± 0.042 | 2.01 ± 0.031 | 1.46 ± 0.085 |
| TAMKKVEDGNILVFQVS [RPL25] | 2.53 ± 0.049 | 2.48 ± 0.056 | 2.8 ± 0.044 | 2.48 ± 0.052 |
| DVQLERVADEDANLNDL [IRR1] | 2.89 ± 0.17 |  |  |  |
| TFAKSKNYSRPSTAIHT [SIR4] | 2.03 ± 0.099 | 1.79 ± 0.066 | 2.15 ± 0.05 | 1.53 ± 0.1 |
| DDDKKPDDDKIVPLTEG [RPT1] | 3 ± 0.13 | 3.29 ± 0.11 | 3.32 ± 0.064 | 3.16 ± 0.12 |
| EHGLQITHTENYNDLIV [BRN1] | 3.5 ± 0.27 | 2.81 ± 0.18 | 2.77 ± 0.089 |  |
| KNFIESESVGAFLSFLA [YJL039C/NUP192] | 2.1 ± 0.066 | 2.25 ± 0.068 | 2.85 ± 0.045 | 2.47 ± 0.066 |
| LYASDYASYFPYLLETY [RPN7] | 1.62 ± 0.077 | 1.83 ± 0.086 | 1.18 ± 0.044 | 1.39 ± 0.09 |
